This note sets out measurements from patent US20180148484A1 (Pieris, published 2018).

For assay [1], the target named is T1, human CD137 expressed on cells (human, UniProt Q07011 24-255).
T1 construct: whole, on cells; also called CHO-huCD137; CHO::hCD137
Description: FACS on CHO cells stably transfected with human CD137. As for the experimental part: (§1) To perform the experiment, CD137-positive and negative Flp-In CHO cells were incubated with lipocalin muteins, and bound mutein was labeled using anti-lipocalin primary antibodies and fluorescently labeled secondary antibodies, which were detected by FACS analysis as described in the following.
(§2) 1×10⁵ cells per well were pre-incubated for 1 h in ice-cold PBS containing 5% fetal calf serum (PBS-FCS). Subsequently, a dilution series of lipocalin muteins and negative controls typically ranging from 10 μM to 1 nM was added to the cells and incubation was continued on ice for 1 h. Cells were washed twice in ice-cold PBS using centrifugation at 300 g and then incubated with a rabbit anti-lipocalin primary antibody (Pieris, (polyclonal rabbit anti-hNGAL and rabbit anti-hTLC; Pieris) for 30 min on ice. Cells were washed twice in ice-cold PBS, re-suspended in PBS-FCS and incubated 30 min on ice with a secondary anti-rabbit antibody labelled with the fluorescent dye Alexa488 (Life Technologies). Cells were subsequently washed and analyzed using a Guava easyCyte HT Flow cytometer. Typically, a gate was set to exclude non-viable cells and 5.000 events were recorded. Numerical results are expressed as the geometric mean of the fluorescence intensity.

Assay [2] concerns the target T2, human CD137-Fc fusion protein (Fc-fusion of the full extracellular domain of human CD137, R&D Systems 838-4B) (human, UniProt Q07011 24-186).
T2 construct: extracellular domain; Bought protein; also called huCD137-Fc; KD huCD137; not shown: Fc of human IgG (captured by an anti-human IgG-Fc antibody)
The experiment in a line: SPR, huCD137-Fc captured via anti-human IgG-Fc antibody. An excerpt:
FIG. 1: provides typical measurements of on-rate and off-rate by surface plasmon resonance (SPR) for the interaction of various representative lipocalin muteins (SEQ ID NOs indicated in the graph) with human CD137 (Fc-fusion) as the target. The targets were immobilized via an anti-human IgG-Fc antibody, which was in turn immobilized on a sensor chip using standard amine coupling chemistry. The lipocalin muteins were employed as the soluble analyte which was flowed at different concentrations across the chip surface. […] The dissociation constants resulting from a fit (1:1 binding model) of the depicted data for all SEQ ID NOs are provided in Table 1.
Prior to the protein measurements three regeneration cycles were performed for conditioning purposes. Regeneration of the derivatized chip surface was achieved by applying 3M MgCl₂ for 60 s followed by 10 mM glycine, pH 1.7 for 180 s. Anti-human IgG-Fc antibody was utilized to immobilize huCD137-Fc in a subsequent step and taken from the human antibody capture kit (GE Healthcare, BR-1008-39). […]
HuCD137-Fc at a concentration of 0.5 μg/mL was captured on this surface for 180 s at a flow rate of 10 μL/min in HBS-EP+ buffer. […] Data were evaluated with Biacore T200 Evaluation software (V 2.0). […]

The target of assay [3] is T2, human CD137-Fc fusion protein …. The experiment in a line: SPR (Biacore T200, 37 C), huCD137-Fc captured via anti-human IgG-Fc antibody, mutein as analyte, 1:1 model. As for the experimental part:
Prior to the protein measurements three regeneration cycles were performed for conditioning purposes. Regeneration of the derivatized chip surface was achieved by applying 3M MgCl₂ for 60 s followed by 10 mM glycine, pH 1.7 for 180 s. Anti-human IgG-Fc antibody was utilized to immobilize huCD137-Fc in a subsequent step and taken from the human antibody capture kit (GE Healthcare, BR-1008-39). It was immobilized on a CM5 sensor chip using standard amine coupling chemistry and the immobilization buffer included in the kit (10 mM sodium acetate pH 5.0), resulting in a ligand density of about 13000 resonance units (RU). The reference channel was treated accordingly.
HuCD137-Fc at a concentration of 0.5 μg/mL was captured on this surface for 180 s at a flow rate of 10 μL/min in HBS-EP+ buffer. No target protein was applied to the reference channel. Subsequently, the lipocalin muteins were applied in an appropriate dilution series in HBS-EP+ buffer at a flow rate of 30 μL/min. Regeneration of the derivatized chip surface was achieved as described above. Data were evaluated with Biacore T200 Evaluation software (V 2.0). Double referencing was used and the 1:1 Binding model was used to fit the raw data.
On the technique in general: Surface plasmon resonance follows binding to a sensor surface in real time, without labels.

Assay [4] deals with T1, human CD137 expressed on cells. The experiment in a line: FACS on CHO cells stably transfected with human CD137; anti-lipocalin primary and Alexa488 secondary antibody. Here is the method: as §1, §2
Assay [5] has the same target. Description: cell-based or functional assay.

T1 sequence (Q07011 24-255): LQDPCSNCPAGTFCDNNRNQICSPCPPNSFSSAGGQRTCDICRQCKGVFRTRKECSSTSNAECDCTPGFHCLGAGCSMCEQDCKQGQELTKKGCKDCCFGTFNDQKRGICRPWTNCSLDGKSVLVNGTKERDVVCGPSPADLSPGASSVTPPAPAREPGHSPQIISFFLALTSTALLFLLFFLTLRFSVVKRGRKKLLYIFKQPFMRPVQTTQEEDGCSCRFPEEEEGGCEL

B1: negative control, wild-type like lipocalin mutein SEQ ID NO: 4 (other)
chain: QDSTSDLIPAPPLSKVPLQQNFQDNQFHGKWYVVGLAGNAILREDKDPQKMYATIYELKEDKSYNVTSVLFRKKKCDYWIRTFVPGSQPGEFTLGNIKSYPGLTSYLVRVVSTNYNQHAMVFFKKVSQNREYFKITLYGRTKELTSELKENFIRFSKSLGLPENHIVFPVPIDQCIDG
notes: captured by anti-hNGAL antibody in the T-cell assays
B1: the binding result in assay [1] and in assay [2] was “no binding” in each case.

B2: lipocalin mutein of SEQ ID NO: 18 (designed binder, not shown: small tags and cut ends)
chain: QDSTSDLIPAPPLSKVPLQQNFQDNQFHGKWYVVGQAGNIRLREDKDPHKMMATIYELKEDKSYDVTGVTFDDKKCTYAISTFVPGSQPGEFTLGKIKSFPGHTSSLVRVVSTNYNQHAMVFFKFVFQNREEFYITLYGRTKELTSELKENFIRFSKSLGLPENHIVFPVPIDQCIDG
notes: expressed in E. coli with a C-terminal Strep-tag II; also called hNGAL mutein
For the molecule B2, in assay [3], the affinity, expressed as Kd, was 77 nM. Besides, in assay [4], the response was half-maximal at 13.7 nM (EC50).

B3: lipocalin mutein of SEQ ID NO: 17 (designed binder, not shown: small tags and cut ends)
chain: QDSTSDLIPAPPLSKVPLQQNFQDNQFHGKWYVVGQAGNIKLREDKDPVKMMATIYELKEDKSYDVTGVTFDDKKCRYDISTFVPGSQPGEFTFGKIKSFPGHTSSLVRVVSTNYNQHAMVFFKFVFQNREEFYITLYGRTKELTSELKENFIRFSKSLGLPENHIVFPVPIDQCIDG
notes: as for B2
In the case of B3, in assay [3], binding was characterised by a dissociation constant (Kd) of 50 nM. For the same molecule, a half-maximal effect in assay [4] (EC50) was put at 17.9 nM.

B4: lipocalin mutein of SEQ ID NO: 12 (designed binder, not shown: small tags and cut ends)
chain: QDSTSDLIPAPPLSKVPLQQNFQDNQFHGKWYVVGQAGNIKLREDKDPNKMMATIYELKEDKSYNVTGVTFDDKKCTYAISTFVPGSQPGEFTLGKIKSFPGHTSSLVRVVSTNYNQHAMVFFKFVFQNREEFYITLYGRTKELTSELKENFIRFSKSLGLPENHIVFPVPIDQCIDG
notes: as for B2
On to B4, for which the dissociation constant Kd (commonly the concentration at which binding is half-saturated) in assay [3] worked out at 36 nM.

B5: lipocalin mutein of SEQ ID NO: 15 (designed binder, not shown: small tags and cut ends)
chain: QDSTSDLIPAPPLSKVPLQQNFQDNQFHGKWYVVGQAGNIKLREDKDPNKMMATIYELKEDKSYDVTAVAFDDKKCTYDIWTFVPGSQPGEFTLGKIKSFPGHTSSLVRVVSTNYNQHAMVFFKFVFQNREEFYITLYGRTKELTSELKENFIRFSKSLGLPENHIVFPVPIDQCIDG
notes: as for B2
In turn, B5 came in with an equilibrium dissociation constant (Kd) in assay [3] of 23 nM. The concentration giving a half-maximal response (EC50) – broadly, the concentration giving half of the maximal effect – in assay [4] worked out at 7.8 nM.

B6: lipocalin mutein of SEQ ID NO: 13 (designed binder, not shown: small tags and cut ends)
chain: QDSTSDLIPAPPLSKVPLQQNFQDNQFHGKWYVVGQAGNIRLREDKDPIKMMATIYELKEDKSYDVTMVKFDDKKCMYDIWTFVPGSQPGEFTLGKIKSFPGHTSSLVRVVSTNYNQHAMVFFKFVFQNREEFYITLYGRTKELTSELKENFIRFSKSLGLPENHIVFPVPIDQCIDG
notes: as for B2
B6 returned a dissociation constant Kd in assay [3] of 2 nM. In assay [5], the “IFN-γ production, coated mutein, anti-CD3 and anti-CD28 stimulation” value was ≤ 2.5 fold over negative control; the “IFN-γ production, coated mutein, anti-CD3 stimulation only” value was ~2.5 fold over negative control; the “IL-2 production, coated mutein, anti-CD3 and anti-CD28 stimulation” value is ~6 fold over negative control; the “maximum response at 6.25 µg/mL coating concentration (readout not named, probably IL-2), anti-CD3 stimulation only” value is 15 fold over negative control. Besides, in assay [5], the “proliferation rate (BrdU), coated mutein, anti-CD3 and anti-CD28 stimulation” value was ≤ 14 fold over negative control; the “proliferation rate (BrdU), coated mutein, anti-CD3 stimulation only” value was ≤ 4 fold over negative control. The same molecule had a half-maximal effective concentration (EC50) in assay [4] of 4.3 nM.

B7: lipocalin mutein of SEQ ID NO: 19 (designed binder, not shown: small tags and cut ends)
chain: QDSTSDLIPAPPLSKVPLQQNFQDNQFHGKWYVVGQAGNIKLREDKDPNKMMATIYELKEDKSYDVTGVTFDDKKCTYAISTLVPGSQPGEFTFGKIKSFPGHTSSLVRVVSTNYNQHAMVFFKFVFQNREEFYITLYGRTKELTSELKENFIRFSKSLGLPENHIVFPVPIDQCIDG
notes: as for B2
Turning to B7, binding in assay [3] was characterised by a dissociation constant (Kd) of 98 nM.

B8: lipocalin mutein of SEQ ID NO: 20 (designed binder, not shown: small tags and cut ends)
chain: QDSTSDLIPAPPLSKVPLQQNFQDNQFHGKWYVVGQAGNIRLREDKDPSKMMATIYELKEDKSYDVTAVTFDDKKCNYAISTFVPGSQPGEFTLGKIKSFPGHTSSLVRVVSTNYNQHAMVFFKFVFQNREEFYITLYGRTKELTSELKENFIRFSKSLGLPENHIVFPVPIDQCIDG
notes: as for B2
Take B8: in assay [3], the Kd amounted to 138 nM. For the same molecule, the EC50 in assay [4] is 18 nM.

B9: lipocalin mutein of SEQ ID NO: 14 (designed binder, not shown: small tags and cut ends)
chain: QDSTSDLIPAPPLSKVPLQQNFQDNQFHGKWYVVGQAGNIRLREDKDPNKMMATIYELKEDKSYDVTAVAFDDKKCTYDIWTFVPGSQPGEFTLGKIKSFPGHTSSLVRVVSTNYNQHAMVFFKFVFQNREEFYITLYGRTKELTSELKENFIRFSKSLGLPENHIVFPVPIDQCIDG
notes: as for B2
Consider B9, for which the Kd in assay [3] was 9 nM. Also, in assay [4], a half-maximal response (EC50) required 4.5 nM.

B10: lipocalin mutein of SEQ ID NO: 16 (designed binder, not shown: small tags and cut ends)
chain: QDSTSDLIPAPPLSKVPLQQNFQDNQFHGKWYVVGQAGNIKLREDSKMMATIYELKEDKSYDVTGVSFDDKKCTYAIMTFVPGSQPGEFTLGKIKSFPGHTSSLVRVVSTNYNQHAMVFFKFVFQNREEFYITLYGRTKELTSELKENFIRFSKSLGLPENHIVFPVPIDQCIDG
notes: as for B2
In turn, B10 yielded a Kd in assay [3] of 30 nM.
